Several values for one entry are separate records, joined by “and”; a condition that tells them apart may be missing. Equal values may be shown once.
T1: envelope of HIV-2 strain ROD (HIV-2 strain ROD, UniProt P04577 20-858)
T1 sequence: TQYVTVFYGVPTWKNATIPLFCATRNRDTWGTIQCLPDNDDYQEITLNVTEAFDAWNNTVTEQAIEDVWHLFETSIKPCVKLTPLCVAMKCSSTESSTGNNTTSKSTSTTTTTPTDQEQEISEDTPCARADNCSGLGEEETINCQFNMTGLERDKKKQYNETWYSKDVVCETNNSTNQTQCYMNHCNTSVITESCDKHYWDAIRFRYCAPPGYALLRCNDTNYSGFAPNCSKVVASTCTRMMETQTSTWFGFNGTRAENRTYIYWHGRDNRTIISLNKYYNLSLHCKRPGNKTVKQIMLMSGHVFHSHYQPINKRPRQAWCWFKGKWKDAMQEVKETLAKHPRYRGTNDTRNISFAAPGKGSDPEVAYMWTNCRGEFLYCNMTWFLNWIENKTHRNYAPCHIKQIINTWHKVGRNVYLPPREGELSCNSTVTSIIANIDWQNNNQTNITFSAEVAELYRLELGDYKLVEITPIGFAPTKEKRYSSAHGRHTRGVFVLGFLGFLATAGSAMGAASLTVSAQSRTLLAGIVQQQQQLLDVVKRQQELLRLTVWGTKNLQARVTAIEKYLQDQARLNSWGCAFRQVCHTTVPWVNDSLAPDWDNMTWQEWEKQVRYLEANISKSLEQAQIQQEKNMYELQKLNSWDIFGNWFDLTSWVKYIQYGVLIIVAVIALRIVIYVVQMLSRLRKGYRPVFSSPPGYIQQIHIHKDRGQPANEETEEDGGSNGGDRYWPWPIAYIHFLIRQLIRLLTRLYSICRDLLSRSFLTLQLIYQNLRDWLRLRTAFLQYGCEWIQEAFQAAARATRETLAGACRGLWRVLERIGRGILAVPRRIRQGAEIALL

T2: V3 peptide NNT20 (HIV-1 strain JR-FL)
T2 construct: Coated on the plate at 5 µg/ml
T2 peptide: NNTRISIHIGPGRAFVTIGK


Experiments:
[1] = biological target: T3, monomeric gp120 (gp120-SF2; Austral Biologicals) (HIV-1 strain SF2, UniProt P03378 32-509); assay: gp120-capture ELISA with or without 0.5 µg/ml sCD4
T3 construct: domain: gp120; also called gp120 monomer

[2] = biological target: envelope of standard panel pseudotyped virus SVPB13 (HIV-1 subtype B); assay: cell-based or functional assay
[3] = biological target: envelope of standard panel pseudotyped virus SVPB5 (HIV-1 subtype B); assay: cell-based or functional assay
[4] = biological target: envelope of standard panel pseudotyped virus SVPB11 (HIV-1 subtype B); assay: cell-based or functional assay
[5] = biological target: envelope of standard panel pseudotyped virus SVPB17 (HIV-1 subtype B); assay: cell-based or functional assay
[6] = biological target: envelope of standard panel pseudotyped virus SVPB6 (HIV-1 subtype B); assay: cell-based or functional assay
[7] = biological target: envelope of standard panel pseudotyped virus SVPB14 (HIV-1 subtype B); assay: cell-based or functional assay
[8] = biological target: envelope of standard panel pseudotyped virus SVPB8 (HIV-1 subtype B); assay: cell-based or functional assay
[9] = biological target: envelope of standard panel pseudotyped virus SVPB16 (HIV-1 subtype B); assay: cell-based or functional assay
[10] = biological target: envelope of standard panel pseudotyped virus SVPB15 (HIV-1 subtype B); assay: cell-based or functional assay
[11] = biological target: envelope of standard panel pseudotyped virus SVPB18 (HIV-1 subtype B); assay: cell-based or functional assay
[12] = biological target: envelope of standard panel pseudotyped virus SVPB12 (HIV-1 subtype B); assay: cell-based or functional assay
[13] = biological target: envelope of HIV-1 clinically isolated strain MTA; assay: cell-based or functional assay; set-up: unit not given beside the values
[14] = biological target: envelope of HIV-1 strain 89.6 (HIV-1 strain 89.6, UniProt Q73372 32-853); assay: cell-based or functional assay; set-up: unit not given beside the values
[15] = biological target: envelope of HIV-2 strain EHO (HIV-2 strain EHO); assay: cell-based or functional assay; set-up: unit not given beside the values
[16] = biological target: envelope of HIV-1 clinically isolated strain MOKW; assay: cell-based or functional assay; set-up: unit not given beside the values
[17] = biological target: envelope of HIV-1 clinically isolated strain YKI; assay: cell-based or functional assay; set-up: unit not given beside the values
[18] = biological target: envelope of HIV-1 strain YU2 (HIV-1 strain YU2, UniProt P35961 32-843); assay: cell-based or functional assay; set-up: unit not given beside the values
[19] = biological target: envelope of HIV-1 strain BaL (HIV-1 strain BaL); assay: cell-based or functional assay; set-up: unit not given beside the values
[20] = biological target: envelope of HIV-1 strain IIIB (HIV-1 strain IIIB); assay: cell-based or functional assay; set-up: unit not given beside the values
[21] = biological target: T1, envelope of HIV-2 strain ROD; assay: cell-based or functional assay; set-up: unit not given beside the values
[22] = biological target: envelope of HIV-1 clinically isolated strain MIS; assay: cell-based or functional assay; set-up: unit not given beside the values
[23] = biological target: envelope of HIV-1 clinically isolated strain TR43; assay: cell-based or functional assay; set-up: unit not given beside the values
[24] = biological target: envelope of HIV-1 strain SF162 (HIV-1 strain SF162, UniProt P19550 32-847); assay: cell-based or functional assay; set-up: unit not given beside the values
[25] = biological target: envelope of HIV-1 clinically isolated strain YIS; assay: cell-based or functional assay; set-up: unit not given beside the values
[26] = biological target: envelope of HIV-1 strain JR-FL (JRFLwt), on virus (HIV-1 strain JR-FL); assay: cell-based or functional assay; set-up: unit not given beside the values
[27] = biological target: envelope of HIV-1 strain JRFLGPER; assay: cell-based or functional assay; set-up: unit not given beside the values
[28] = biological target: envelope of HIV-1 clinically isolated strain kKGO; assay: cell-based or functional assay; set-up: unit not given beside the values
[29] = biological target: envelope of HIV-1 clinically isolated strain KMT; assay: cell-based or functional assay; set-up: unit not given beside the values
[30] = biological target: T3, monomeric gp120 (gp120-SF2; Austral …); assay: gp120-capture ELISA, B cell culture supernatant
[31] = biological target: T2, V3 peptide NNT20; assay: V3-peptide ELISA, NNT20 coated at 5 µg/ml

Binder	IC50 in TZM-bl cells [2]	IC50 in TZM-bl cells [3] [µg/mL]	IC50 in TZM-bl cells [4] [µg/mL]	IC50 in TZM-bl cells [5] [µg/mL]	IC50 in TZM-bl cells [6] [µg/mL]	IC50 in TZM-bl cells [7] [µg/mL]	IC50 in TZM-bl cells [8] [µg/mL]	IC50 in TZM-bl cells [9] [µg/mL]	IC50 in TZM-bl cells [10] [µg/mL]	IC50 in TZM-bl cells [11] [µg/mL]	IC50 in TZM-bl cells [12]	IC50, neutralizing activity (MTT assay) [13]	IC50, neutralizing activity (MTT assay) [14]	IC50, neutralizing activity (MTT assay) [15]	IC50, neutralizing activity (MTT assay) [16]	IC50, neutralizing activity (MTT assay) [17]	IC50, neutralizing activity (MTT assay) [18]	IC50, neutralizing activity (MTT assay) [19]	IC50, neutralizing activity (MTT assay) [20]	IC50, neutralizing activity (MTT assay) [21]	other results
0.5 δ(3D6) (antibody, IgG1, V domains shown, also called 3D6(0.5 δ); 0.5 d(3D6)) VH: EVQLVESAAEVKKPGASVKVSCKASGYTFTSYGISWVRQAPGQGLQWMGWISAYNGNTKFAQEFKGRVTMTTDTSATTAYMELRSLRSDDTAVYYCARRNYYDSGSYYIRDGDYSMDVWGQGTLVTVSS VL: not shown	> 50 µg/mL	1.2	> 50	> 50	> 50	> 50	> 50	> 50	> 50	> 50	> 50 µg/mL	0.15	> 50	> 50	0.42	2.4	> 50	> 50	2	> 50	binding result [1]: binds; IC50, neutralizing activity (MTT assay) [22]: 0.15; IC50, neutralizing activity (MTT assay) [23]: > 50; IC50, neutralizing activity (MTT assay) [24]: 2.3; IC50, neutralizing activity (MTT assay) [25]: 2.3; IC50, neutralizing activity (MTT assay) [26]: > 50; IC50, neutralizing activity (MTT assay) [27]: 1.2; IC50, neutralizing activity (MTT assay) [28]: > 50; IC50, neutralizing activity (MTT assay) [29]: 24
42F9 (antibody, IgG1, V domains shown) VH: EVQLVESGGGVVRPGGSLRLSCAASGFAFGEYGMSWVRQAPGKGLEWVSGINWNGGSTGYADSVQGRFTTSRDNAKNSLYLQMNSLRAEDTALYYCARDENYDILTGNYYYGMDVWGQGTTVTVSS VL: DIQLTQSPSSLSASVGDRVTITCRASQSISNYLNWYQQKPGKAPKLLIYAASSLQSGVPSRFSGSGSGTDFTLTISSLQPEDFATFYCQQSHSIPYTFGQGTKLEIKR	> 50 µg/mL	4.5	> 50	> 50	> 50	> 50	> 50	21	> 50	> 50	> 50 µg/mL	–	–	–	–	–	–	–	–	–	binding result [30]: binds
0.5 γ(1C10) (antibody, IgG1, V domains shown, Human monoclonal from EBV-immortalised B cells of a long-term nonprogressor; also called 0.5γ(IC10); 1C10(0.5 γ)) VH: EVQLVESGGGLIQPGGSLRLSCAASGFTVSSSSMSWVRQAPEKGLEWVSVVYSGGNTYNADSVKGRFSISRDNSKNTVYLQMNSLRADDTAVYYCARDLGGGDRSSDYWGQGTLVTVSS VL: DIQLTQSPSSLSASVGDRVTITCRASESINTYLNWYQQRPGKAPKLLIYAASTLQTGVPSRFSGSGSGTLFTLTISSLQPEDLATYYCQQSFSTLPYTLGRGTKVEIKG	> 50 µg/mL and 110 µg/mL	0.23	35	4.5	38	10.5	> 150	6.1	> 150	1.1	> 50 µg/mL and 82 µg/mL	0.53	0.12	> 50	0.02	0.01	14	0.25	> 50	> 50	IC50, neutralizing activity (MTT assay) [22]: > 50; IC50, neutralizing activity (MTT assay) [23]: > 50; IC50, neutralizing activity (MTT assay) [24]: 0.053; IC50, neutralizing activity (MTT assay) [25]: 0.59; IC50, neutralizing activity (MTT assay) [26]: 2.9; IC50, neutralizing activity (MTT assay) [27]: 26; IC50, neutralizing activity (MTT assay) [28]: 0.32; IC50, neutralizing activity (MTT assay) [29]: 24; binding result [30]: binds; binding result [31]: binds
5G2 (antibody, IgG1, V domains shown) VH: EVQLVESGGGVVRPGNSLRLSCAASGIIFSTANLHWLRHVPGKGLEWVAIISYDGHRQYYADLVKGRFTISRDNSKNTLHLQMDGLTSDDTAVYYCAKDGADENNLGPAFDYWGRGTLVTVSS VL: EIVLTQSPATLSVSPGEGATLSCRASQSISSNLAWYQQKPGQAPRLLIYGASTGATGIPARFSGSGSGTDFTLTISRLEPEDFAIYYCQQYGSLPITFGQGTRLEIKR	> 50 µg/mL	10.1	> 50	50	> 50	> 50	> 50	> 50	> 50	11.5	> 50 µg/mL	0.009	14	> 50	0.012	1	> 50	5.8	> 50	> 50	binding result [1]: binds; IC50, neutralizing activity (MTT assay) [22]: > 50; IC50, neutralizing activity (MTT assay) [23]: > 50; IC50, neutralizing activity (MTT assay) [24]: 0.91; IC50, neutralizing activity (MTT assay) [25]: > 50; IC50, neutralizing activity (MTT assay) [26]: 37; IC50, neutralizing activity (MTT assay) [27]: > 50; IC50, neutralizing activity (MTT assay) [28]: > 50; IC50, neutralizing activity (MTT assay) [29]: > 50; binding result [31]: binds

Reference: patent US20110044995A1 (KUMAMOTO UNIVERSITY, published 2011)
